The experiment addresses T1, human SLC44A1 (human), Q8WWI5.
T1 chain: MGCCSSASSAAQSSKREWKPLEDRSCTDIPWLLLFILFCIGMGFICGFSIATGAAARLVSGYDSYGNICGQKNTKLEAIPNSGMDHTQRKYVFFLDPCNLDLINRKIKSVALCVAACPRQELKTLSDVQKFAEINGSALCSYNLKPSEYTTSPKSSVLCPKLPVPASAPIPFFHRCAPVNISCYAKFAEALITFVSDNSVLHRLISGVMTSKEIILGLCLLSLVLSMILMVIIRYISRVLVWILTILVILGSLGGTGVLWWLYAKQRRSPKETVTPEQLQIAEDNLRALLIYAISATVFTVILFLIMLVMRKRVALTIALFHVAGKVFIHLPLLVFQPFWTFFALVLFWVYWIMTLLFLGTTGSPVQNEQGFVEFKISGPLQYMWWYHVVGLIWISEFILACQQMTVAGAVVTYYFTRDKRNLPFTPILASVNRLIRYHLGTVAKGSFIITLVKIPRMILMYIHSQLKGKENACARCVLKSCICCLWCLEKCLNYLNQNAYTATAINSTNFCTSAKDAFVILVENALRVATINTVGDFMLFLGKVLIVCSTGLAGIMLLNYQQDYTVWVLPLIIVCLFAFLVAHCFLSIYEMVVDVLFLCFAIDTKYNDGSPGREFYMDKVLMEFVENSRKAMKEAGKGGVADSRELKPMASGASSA
Put plainly: cryo-EM structure. The note with it: remark: other sources report otherwise.

B1: human SLC44A1, Q8WWI5 1-657 (natural protein)
chain: MGCCSSASSAAQSSKREWKPLEDRSCTDIPWLLLFILFCIGMGFICGFSIATGAAARLVSGYDSYGNICGQKNTKLEAIPNSGMDHTQRKYVFFLDPCNLDLINRKIKSVALCVAACPRQELKTLSDVQKFAEINGSALCSYNLKPSEYTTSPKSSVLCPKLPVPASAPIPFFHRCAPVNISCYAKFAEALITFVSDNSVLHRLISGVMTSKEIILGLCLLSLVLSMILMVIIRYISRVLVWILTILVILGSLGGTGVLWWLYAKQRRSPKETVTPEQLQIAEDNLRALLIYAISATVFTVILFLIMLVMRKRVALTIALFHVAGKVFIHLPLLVFQPFWTFFALVLFWVYWIMTLLFLGTTGSPVQNEQGFVEFKISGPLQYMWWYHVVGLIWISEFILACQQMTVAGAVVTYYFTRDKRNLPFTPILASVNRLIRYHLGTVAKGSFIITLVKIPRMILMYIHSQLKGKENACARCVLKSCICCLWCLEKCLNYLNQNAYTATAINSTNFCTSAKDAFVILVENALRVATINTVGDFMLFLGKVLIVCSTGLAGIMLLNYQQDYTVWVLPLIIVCLFAFLVAHCFLSIYEMVVDVLFLCFAIDTKYNDGSPGREFYMDKVLMEFVENSRKAMKEAGKGGVADSRELKPMASGASSA
The term stoichiometry N denotes a count of units in the complex or per binding partner. Turning to B1, the stoichiometry N was 2.

For the origin of these results see doi:10.1101/2021.08.21.457230.
